Test results published in the DeepSol protein solubility set.

Assay: soluble on expression in E. coli; label from the status in PepcDB or PDB records

Sequence | soluble on expression in E. coli
FEDVVGQEHITKTLQNALLQKKFSHAYLFSGPRGTGKTSAAKIFAKAVNCEHAPVDEPCNECAACKGITNGSISDVIEIDAASNNGVDEIRDIRDKVKFAPSAVTYKVYIIDEVHMLSIGAFNALLKTLEEPPEHCIFILATTEPHKIPLTIISRCQRFDFKRITSQAIVGRMNKIVDAEQLQVEEGSLEIIASAADGGMRDALSLLDQAISFSGDILKVEDALLITGAVSQLYIGKLAKSLHDKNVSDALETLNELLQQGKDPAKLIEDMIFYFRDMLLYKTAPGLEGVLEKVKVDETFRELSEQIPAQALYEMIDILNKSHQEMKWTNHPRIFFEVAVVKICQTSHQSAADLPEVDMLMKKIQQLEQEVERLKTTGIKAAAESPKKEAPRVPKGGKSNYKAPVGRIHEILKEATRPDLDLLRNSWGKLLAHLKQQNKVSHAALLNDSEPVAAGSAAFVLKFKYEIHCKMVAEDNNGVRTNLEQILESMLGKRMDLIGVPEAQWGKIREEFLEDHQQANEGSNEPAEEDPLIAEAKKLVGADLIEIKD | not soluble
FFALDYKRTEYVQYEDDEYYYYVKAVPKLNVASEDVRIKHINAKKTKKTSDIRDMKKTSSHRAESGYQAASAEEDDDILFYDNDDK | not soluble
FGTFKSAITDYHGYEYKNHGYGLALTDTDLLGGSSGSLVFNQDKKISSIYSAATESDSVGYAQLLPVPKDV | not soluble
FGYIVELNWKLSKILNCQPEYVYPKLDELLGCLLTKKPLHEYGMKDEEVRGFAESVLKTQQRLLANNYVELTVDEIEGIYRRLY | not soluble
FHLGKCPNPPVQENFDVNKYPGRWYEIEKIPTTFENGRCIQANYSLMENGKIKVLNQELRADGTVNQIEGEATPVNLTEPAKLEVKFSWFMPSAPYHILATDYENYALVYSCTSISQSFHVDFAWILARNVALPPETVDSLKNILTSNNIDVKKMTVTDQVNCPKLSAHHHHHH | soluble
FLDKPTLLSPEELKAASRGNGEYALYYEGRNGWWQYDERTSRELEDAFSKGKRTSEMLIAGFLYVADLENMGQYRRNEHGRRRKIKRDIIDIPKKGV | soluble
FLVPPTVEQKTRPFTLPNLPLSSLSNSRAPLPISSMGISPDNVQSVQFQNGRCTLDGRLVGTTPVSLSHVAKIRGTSNGTVINLTELDGTPFHPFEGPAPIGFPDLGGCDWHINMTQFGHSSQTQYDVDTTPDTFVPHLGSIQANGIGSGNYVGVLSWISPPSHPSGSQVDLWKIPNYGSSITEATHLAPSVYPPGFGEVLVFFMSKMPGPGAYNLPCLLPQEYISHLASEQAPTVGEAALLHYVDPDTGRNLGEFKAYPDGFLTCVPNGASSGPQQLPINGVFVFVSWVSRFYQLKPVGTASSARGRLGLRR | soluble
FMFKHIIARTPARSLVDGLTSSHLGKPDYAKALEQHNAYIRALQTCDVDITLLPPDERFPDSVFVEDPVLCTSRCAIITRPGAESRRGETEIIEETVQRFYPGKVERIEAPGTVEAGDIMMVGDHFYIGESARTNAEGARQMIAILEKHGLSGSVVRLEKVLHLKTGLAYLEHNNLLAAGEFVSKPEFQDFNIIEIPEEESYAANCIWVNERVIMPAGYPRTREKIARLGYRVIEVDTSEYRKIDGGVSSMSLRF | soluble
FNKIKDSVKQKIDSMGDKGTYGVSASHPLAVEEGMKVLKNGGSAVDAAIVVSYVLGVVELHASGIGGGGGMLIISKDKETFIDYRETTPYFTGNQKPHIGVPGFVAGMEYIHDNYGSLPMGELLQPAINYAEKGFKVDDSLTMRLDLAKPRIYSDKLSIFYPNGEPIETGETLIQTDLARTLKKIQKEGAKGFYEGGVARAISKTAKISLEDIKGYKVEVRKPVKGNYMGYDVYTAPPPFSGVTLLQMLKLAEKKEVYKDVDHTATYMSKMEEISRIAYQDRKKNLGDPNYVNMDPNKMVSDKYISTMKNENGDALSEAEHES | soluble
FPQLPPAPDDYPTFPDTSTWPVVFPELPAAPYGGPCRPPQHTSKAAAPRIPADRLPNHVAIVMDGNGRWATQRGLARTEGHKMGEAVVIDIACGAIELGIKWLSLYAFSTENWKRSPEEVRFLMGFNRDVVRRRRDTLKKLGVRIRWVGSRPRLWRSVINELAVAEEMTKSNDVITINYCVNYGGRTEITEATREIAREVAAGRLNPERITESTIARHLQRPDIPDVDLFLRTSGEQRSSNFMLWQAAYAEYIFQDKLWPDYDRRDLWAACEEYASRTRRFGSA | soluble
FRRTGIRRIIIGQDQILFESSDNTVQIFPLNTLKSVDLYSTYDEMIELKAHRQPKITLSKSWIKRKDYRFIVSYLRERSATSGYKYTDYR | not soluble
FSDAFETAFFSVSNIGLHARAYKDKLFVHTASLRSGNPYKQVDLLVLDAKGETVLQGATDDNGNALLNYTLNAGHVLVSRNGRDISILPFNQPALDLSEFAVAGRENPWFDVFAWSGRDLYRPGEMLRISALLRDRDGKPVKPQPVFLRLKQPDGKTFRETRLQPAEQGYLEFTQKIPSDAPTGRWRVEFRTDPASKEAVQGLAVRVEEFLPERMKLELSSAQPVLRAKAPFTLTADAAYLYGAPAAGNRFTANLAVAVEQHPLDNMPGWFFGDATL | not soluble
FSQHVSANLNLPSPSLNTPLNWLLTSVDEVMFNQQLHGSAVHINCAFPEPLYSDGEKSAYQSYLSSVEAWRKGGQTYTQRFVSPSFRDIPFCADRKGVVVIGSLSAEHAQEAKAFAQQMGWPVLADPQSGVSSDWSHYDLWLQQPKLASQLDECDLVLQFGSRIISKRLNQWINKQVSQSQQGRDVQYWFISPSLSRDNQTHLPQLHWVASPKSWVERVDVKSSSTQGWADGLLTDIAHVRAHISDEFLFSSASTLNEIALAADIEERTQSVDVFLGNSLFVRLVDMFGRLNTEVFTNRGASGIDGLFATASGVQRSRGKPLLMYIGDTSALYDLNSLALFSRNDLPSVLVVTNNDGGAIFDMLPVPQEHRTAYYQMPHGYQFEHAAKQFGLKYEKPTTLQMYQAMVADHLSSGQGTMLVEVQTPPSQAAELIKAFNKSLHASL | not soluble
GAKQVDVHDPVMTREGDTWYLFSTGPGITIYSSKDRVNWRYSDRAFATEPTWAKRVSPSFDGHLWAPDIYQHKGLFYLYYSVSAFGKNTSAIGVTVNKTLNPASPDYRWEDKGIVIESVPQRDLWNAIAPAIIADDHGQVWMSFGSFWGGLKLFKLNDDLTRPAEPQEWHSIAKLERSVLMDDSQAGSAQIEAPFILRKGDYYYLFASWGLCCRKGDSTYHLVVGRSKQVTGPYLDKTGRDMNQGGGSLLIKGNKRWVGLGHNSAYTWDGKDYLVLHAYEAADNYLQKLKILNLHWDGEGWPQVDEKELDSYISQRLK | soluble
GALGVVDEVHAGKEIGLQIYSLSQELYKGDVAANLRKVKDMGYSKLELAGYGKGAIGGVPMMDFKKMAEDAGLKIISSHVNPVDTSISDPFKAMIFKYSKEVTPKIMEYWKATAADHAKLGCKYLIQPMMPTITTHDEAKLVCDIFNQASDVIKAEGIATGFGYHNHNMEFNRVATKEQQEKVKGNPFAAFMKVGDQIYDLMLKDTDPSKVYFEMDVYWTVMGQNDPVEYMQKHPDRIKVLHIKDRAVFGQSGMMNFEMIFKQMYANGIKDYFVELEQMPDGRTQFAGVKDCADYLIKAPFVK | soluble
GAMAPHFKEELRNLNVRYQSNATLVCKVTGHPKPIVKWYRQGKEIIADGLKYRIQEFKGGYHQLIIASVTDDDATVYQVRATNQGGSVSGTASLEVEVPAKIHLPKTLEGMGAVHALRGEVVSIKIPFSGKPDPVITWQKGQDLIDNNGHYQVIVTRSFTSLVFPNGVERKDAGFYVVCAKNRFGIDQKTVELDVADVPDPPRGVKVSDVSRDSVNLTWTEPASDGGSKITNYIVEKCATTAERWLRVGQARETRYTVINLFGKTSYQFRVIAENKFGLSKPSEPSEPTITKEDKTRAMNYDEEV | soluble
GAMDPREVILCKDQDGKIGLRLKSIDNGIFVQLVQANSPASLVGLRFGDQVLQINGENCAGWSSDKAHKVLKQAFGEKITMTIRDRPFERTITMHKDSTGHVGFIFKNGKITSIVKDSSAARNGLLTEHNICEINGQNVIGLKDSQIADILSTSGTVVTITIMPAF | soluble
GAMESEEPVFSLEQNRDDAMAALASTPTFQQTFINSISTQAMDLCKKYNLYPSVMIAQAALESNWGRSELGKAPNYNLFGIKGSYNGKSVTMKTWEYSDSKGWYQINANFAKYPSHKESLEDNAKKLRNGPSWDSSYYKGAWRENAKTYKDATAWLQGRYATDNTYASKLNTLISSYNLTQYD | soluble
